Experimental data from US20230131339A1, “EPI-X4 BASED PEPTIDES AND DERIVATIVES THEREOF” (Universitaet Ulm, priority 2020, published 2023).
Read-outs that look alike come from different tables or passages of the source. Where a SMILES comes first, the peptide text is derived from it. Where no end group is shown, it is not given here. Side-chain parts run from the residue outwards. The star is where a group is joined. DOTA = O=C(O)CN1CCN(CC(=O)O)CCN(CC(=O)*)CCN(CC(=O)O)CC1; Stearoyl = CCCCCCCCCCCCCCCCCC(=O)*; Palmitoyl = CCCCCCCCCCCCCCCC(=O)*; Glu = glutamate linker

Legend:
[1] = s9, 8 h
Description: (§2) Further, the stability of peptides in human S9 liver fractions (in the presence of cofactors) was tested (FIG. 12). […] To simulate and predict hepatic metabolic clearance, peptides were added to human S9 liver fractions. […] For each peptide, three independent experiments were performed.
(§3) Stability assay in human S9 liver fractions. Pooled human liver S9 fractions were obtained from Thermo Fisher Scientific at a total protein concentration of 20 mg/ml. Fractions were stored in 25 μl aliquots at −80° C. For stability experiments, they were diluted to a final concentration of 0.5 mg/ml in Tris buffer. Cofactors (or buffer) were added immediately before start of the experiment (NADPH: 1 mM, UDPGA: 0.5 mM, GSH: 2.5 mM, PAPS: 0.05 mg/ml, Sigma Aldrich). The reaction was started by adding peptides or compounds at a concentration of 20 μM to the mixture and gentle agitation at 37° C. Determination of enzymatic stability was performed as described for plasma.

[2] = test system: CXCR4-tropic X4-HIV-1 (NL4-3); type: cell-based; conditions: CXCR4-tropic X4- (NL4-3)
[3] = test system: CXCL12 induced Ca2+-signalling; experiment: Ca++ signaling in BCR-ABL-transformed murine bone marrow cells; type: cell-based; conditions: 1 μM
Description: Fifth, it was shown that the peptide derivatives inhibit calcium-signaling. CXCL12 stimulation of CXCR4 expressing B-cells leads to a strong calcium-release. In the presence of CXCR4 antagonists this response is reduced.
For calcium measurement, 1×10^6 BCR-ABL-transformed murine bone marrow cells were incubated with 5 μg/mL of Indo-1 (Molecular Probes) and 0.5 μg/mL of pluronic F-127 (Molecular Probes) in Iscove's medium supplemented with 1% FCS (Pan Biotech) at 37° C. for 45 min. Cells were then washed by centrifugation and the cell pellets were resuspended in Iscove's medium with 1% FCS and treated with the EPI-X4 derivatives (1 μM or 0.5 μM) for 10 minutes at room temperature. Cells were pre-warmed for 5 minutes at 37° C. Calcium flux was assessed by FACS measurement at BD LSR Fortessa. After 30 seconds of baseline recording, CXCR4-dependent calcium signaling was determined by stimulating with 100 ng/ml of mouse SDF-1a (PeproTech).

[4] = test system: CXCL12 induced migration of T-cells; experiment: Migration assay (transwell, Jurkat cells); type: cell-based
Description: For each peptide, three independent experiments were performed. The error bars refer to the standard deviation.
Migration assay. Migration assays were performed using 96-well transwell assay plates (Corning Incorporated, Kennebunk, Me., USA) with 5 μm polycarbonate filters. […] Next, 75 μL (0.5×10^5 cells) of Jurkat cells (in assay buffer), together with/without the compounds, were added into the upper chambers. After 4 h at 37° C. (5% CO2), 100 μL of the lower chambers were transferred to a fresh 96 V-well plate and analyzed with Cell-Titer-Glo® assay (Promega, Madison, Wis., USA). The percentage of migrated cells was calculated as described by Balabanian et al. (2005). In order to obtain the relative migration in %, the percentage of migrated cells were normalized to the CXCL12-only control.

[5] = Stability assay in human S9 liver fractions; conditions: with cofactors
Description: as §2, §3

[6] = mouse, in vivo, iv
Description: To do so, the labeled conjugate was intravenously injected into the tail vein of immunodeficient mice, followed by localization and quantification of radioactivity within the body using positron emission tomography (PET).

CXCR4 [7] = target: T1, CXCR4 (Homo sapiens, UniProt P61073); experiment: 12G5-assay | IC50 (nM)
T1 construct: endogenous in cells; host or cells: SupT1 cells
Description: (§1) Table printed on a drawing sheet, Figure 2
Title: A Truncated Palmitoylated-JM#21
Head of the field: 12G5-assay | IC50 (nM)
First copying reader's note: The table is the legend of the plot in panel A; the first column also carries the plot symbols, which are not copied.
Where the first naming reader finds the target: passage: Values determined by the competition assay represent the potency of a compound to compete with an antibody that specifically binds to the binding pocket (ECL2) of CXCR4

CXCR4 [8] = target: T1, CXCR4; experiment: 12G5-assay IC50 (nM)
Description: as §1
Title: B Truncated Palmitoylated-JM#21 N-terminally modified
Head of the field: 12G5-assay IC50 (nM)
First copying reader's note: The table doubles as the legend of the antibody competition plot beside it; the plot symbols before the names are not copied.
Where the first naming reader finds the target: passage: compete with an antibody that specifically binds to the binding pocket (ECL2) of CXCR4

[9] = target: T2, CXC chemokine receptor type 4 (CXCR4) (human, UniProt P61073 1-352); experiment: 12G5 antibody competition
T2 chain: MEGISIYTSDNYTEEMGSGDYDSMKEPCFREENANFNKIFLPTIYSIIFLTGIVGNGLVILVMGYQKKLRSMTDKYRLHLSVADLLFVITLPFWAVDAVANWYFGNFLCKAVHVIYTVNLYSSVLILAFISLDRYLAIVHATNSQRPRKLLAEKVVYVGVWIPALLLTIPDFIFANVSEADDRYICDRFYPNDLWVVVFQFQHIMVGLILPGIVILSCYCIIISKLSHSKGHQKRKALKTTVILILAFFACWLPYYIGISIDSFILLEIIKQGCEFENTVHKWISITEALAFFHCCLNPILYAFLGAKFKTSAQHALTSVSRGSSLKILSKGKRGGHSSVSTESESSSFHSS

[10] = target: T3, CXC chemokine receptor type 4 (CXCR4) (human, UniProt P61073 1-352); experiment: 12G5-APC antibody competition on SupT1 cells, flow cytometry
T3 construct: whole, on cells
Description: To the right of the diagrams, an assignment of the curves to the tested peptides is explained. […] Three independent experiments were carried out for each peptide in each assay. The error bars refer to the standard deviation.
Antibody competition assay. Competition of compounds with antibody binding was performed on SupT1 cells. For that cells were washed in PBS containing 1% FCS and 50,000 cells were then seeded per well in a 96 V-well plate. Buffer was removed and plates were precooled at 4° C. […] The antibody was used at a concentration closed to its determined Kd. 15 μl compounds were then added to the cells and 15 μl antibody immediately afterwards. Plates were incubated at 4° C. in the dark for 2 hours. Afterwards cells were washed twice with PBS containing 1% FCS and fixed with 2% PFA. Antibody binding was analyzed by flow cytometry (FACS CytoFLEX; Beckman Coulter®).

[11] = target: T4, CXC chemokine receptor type 4 (CXCR4) (human), P61073; experiment: cell-based or functional assay
T4 chain: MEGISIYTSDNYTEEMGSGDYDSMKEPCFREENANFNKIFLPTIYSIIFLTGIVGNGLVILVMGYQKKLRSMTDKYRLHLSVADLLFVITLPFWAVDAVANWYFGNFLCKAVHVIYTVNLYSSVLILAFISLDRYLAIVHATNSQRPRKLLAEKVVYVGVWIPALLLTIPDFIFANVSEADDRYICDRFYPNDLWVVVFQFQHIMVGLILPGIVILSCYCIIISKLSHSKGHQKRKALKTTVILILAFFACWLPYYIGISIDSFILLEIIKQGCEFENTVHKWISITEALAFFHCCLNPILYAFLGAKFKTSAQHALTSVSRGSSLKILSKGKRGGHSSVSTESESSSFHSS

[12] = target: T4, CXC chemokine receptor type 4 (CXCR4) …; experiment: 12G5-APC antibody competition on SupT1 cells, flow cytometry
[13] = target: T4, CXC chemokine receptor type 4 (CXCR4) …; experiment: competition; conditions: chains peptide; modification not given
[14] = target: T3, CXC chemokine receptor type 4 (CXCR4); experiment: cell-based or functional assay
[15] = target: T2, CXC chemokine receptor type 4 (CXCR4); experiment: competition
[16] = target: T2, CXC chemokine receptor type 4 (CXCR4); experiment: competition
[17] = target: T2, CXC chemokine receptor type 4 (CXCR4); experiment: competition
[18] = target: T2, CXC chemokine receptor type 4 (CXCR4); experiment: 12G5 antibody competition
[19] = target: T3, CXC chemokine receptor type 4 (CXCR4); experiment: antibody competition assay (FIG. 5)

## ILRWSRK(Glu-Ste)LPCVS (ILRWSRK([Glu-Stearoyl])LPCVS) [JM #198]
[1]
  remaining activity in human S9 liver fractions after 8 hours: more stable than its palmitoylated counterpart JM #143
mouse, in vivo, iv, 4 h
  remaining activity in plasma in vivo 4 hours post injection: remained completely active
mouse, in vivo, iv, 8 h
  remaining activity in plasma in vivo 8 hours post injection: 33%
mouse, in vivo, iv, 24 h
  remaining activity in plasma in vivo after 24 hours: completely eliminated

## CCCCCCCCCCCCCCCC(=O)N[C@@H](CCC(=O)O)C(=O)NCCCC[C@H](NC(=O)[C@H](CCCNC(=N)N)NC(=O)[C@H](CO)NC(=O)[C@H](Cc1c[nH]c2ccccc12)NC(=O)[C@H](CCCNC(=N)N)NC(=O)[C@H](CC(C)C)NC(=O)[C@@H](N)[C@@H](C)CC)C(N)=O [JM #192, ILRWSRK(Glu-Pal)-NH2] (H-ILRWSRK([Glu-Palmitoyl])-NH2; N-terminus assumed)
[2]
  IC50: 0.002 µM
[3]
  reduction of CXCL12 induced calcium-signaling: almost completely blocked calcium-signaling
[4]
  inhibition of CXCL12 induced migration of T-cells (in words): high activity
mice, i.v. tail vein, 4 hours post injection
  remaining activity in plasma in vivo 4 hours post injection: completely lost
[5]; 2 hours
  remaining activity in human S9 liver fractions after 2 hours: faster inactivation
[5]; 8 hours
  remaining activity in human S9 liver fractions after 8 hours: more rapidly degraded compared to their N-terminally modified variants

## ILRWSRK(Glu-Ste)-NH2 (ILRWSRK([Glu-Stearoyl])-NH2) [JM #255]
[4]; 30 nM peptide
  inhibition of cell migration: almost complete inhibition of cell migration
[1]
  remaining activity in human S9 liver fractions after 8 hours: more rapidly degraded compared to their N-terminally modified variants

## C-deferoxamine linked JM #122: JM #122 with deferoxamine conjugated via an additional C-terminal cysteine as (succinimido-propionyl-desferrioxamine) acetate (ILRWSRKLPSVS-{C(succinimido-propionyl-desferrioxamine)}; also: acetate salt)
[6]
  biodistribution by PET: rapid (5 min post injection) absorption of the peptide by the kidneys and subsequent release into the bladder

## CC(C)C[C@H](NC(=O)[C@@H](NC(=O)[C@@H]1CCCN1C(=O)[C@@H](NC(=O)[C@H](CO)NC(=O)[C@@H](NC(=O)[C@H](CCC(N)=O)NC(=O)[C@@H]1CCCN1C(=O)[C@@H](NC(=O)[C@H](CCCCN)NC(=O)[C@H](CCCCN)NC(=O)[C@@H](NC(=O)[C@H](Cc1ccc(O)cc1)NC(=O)[C@H](CCCNC(=N)N)NC(=O)[C@@H](NC(=O)[C@@H](N)CC(C)C)C(C)C)[C@@H](C)O)C(C)C)C(C)C)[C@@H](C)O)[C@@H](C)O)C(=O)O [EPIX4] (H-LVRYTKKVPQVSTPTL-OH; N-terminus and C-terminus assumed)
CXCR4 [7]
  IC50: 1.78 µM
CXCR4 [8]
  IC50: 1.46 µM

## ILRWSRKK-NH2 (not fully specified (residue 8)) [JM#191]
[9]
  IC50: 0.003 µM
[10]
  IC50: 0.001 µM
  fold more effective binding than EPI-X4: > 2000 fold
  fold more effective than WSC02: ~300 fold

## ILRWSRKLK([Glu-Palmitoyl])-NH2 [JM#193]
[9]
  IC50: 0.003 µM

## LVRYTKKVPQVSTPTL [EPI-X4]
[11]
  IC50, X4-HIV-1 inhibition assay: 8.63 µM
  reduction of AKT phosphorylation at 10 µM: 40%
[12]
  IC50: 2.5 µM
[13]
  IC50: 2.14 µM

## IVRWSKKVPCVS [WSC02]
[14]
  IC50, X4-HIV-1 inhibition assay: 0.31 µM
[15]
  IC50: 0.254 µM
[16]
  IC50: 0.413 µM
[17]
  IC50: 0.274 µM
[10]
  IC50: 0.35 µM

## ILRWSRKLP-NH2 [JM#114]
[14]
  IC50, HIV inhibition assay: > 0.15 µM
[18]
  IC50: 0.232 µM
[9]
  IC50: 0.268 µM

B1: JM#206 (peptide)
peptide: ILRWSRKLPCVSK(DOTA)
notes: JM#21 with DOTA; also called DOTA-K-JM#21
[19]
  binding result: binds
[16]
  IC50: 0.206 µM

B2: JM#207 (peptide)
peptide: ILRWSRKLPSVSK(DOTA)
notes: JM#122 with DOTA; also called DOTA-K-JM#122
[19]
  binding result: binds
[16]
  IC50: 0.207 µM

## ILRWSRKLPCVS [JM#21]
[14]
  fold effectiveness against WSC02, AKT signaling: ~10 fold
  fold more effective X4-HIV-1 inhibition than EPI-X4: ~100 fold
[15]
  IC50: 0.211 µM
[16]
  IC50: 0.358 µM
[17]
  IC50: 0.147 µM
